Percent dissociated to the monomer form, stoichiometry N and percent of SPE-C in dimer form data for 1 substance are collected here from PMC2199005.

Some results are limits rather than exact numbers.

Test [1] has as its target recombinant streptococcal pyrogenic exotoxin C (SPE-C) (Streptococcus pyogenes). Kind of test: SEC.
Test [2] has the same target. Kind of test: nondenaturing SDS-PAGE.

As to “recombinant streptococcal pyrogenic exotoxin C (SPE-C) (natural protein)”, in test [1], the percent dissociated to the monomer form was 50% and the stoichiometry N was found to be 2. Also, the percent of SPE-C in dimer form in test [2] is > 60%.
